The results in this text go back to PMC4167889 (Molecular cell, 2009).

Data set [1] concerns the target recombinant wild-type p105, His-tagged (E. coli) (UniProt P25799). The experiment in a line: SEC.
Data set [2] deals with the molecule itself. The experiment in a line: AUC.

With “p50, the 50 kD N-terminal product of recombinant p105 (E. coli) (domain or fragment)”, the stoichiometry N – broadly, the number of molecules, sites or subunits per partner or assembly – in data set [1] is 1.

B1: recombinant wild-type p105, His-tagged (E. coli) (natural protein, UniProt P25799-1 1-971, looked up)
chain: MADDDPYGTGQMFHLNTALTHSIFNAELYSPEIPLSTDGPYLQILEQPKQRGFRFRYVCEGPSHGGLPGASSEKNKKSYPQVKICNYVGPAKVIVQLVTNGKNIHLHAHSLVGKHCEDGVCTVTAGPKDMVVGFANLGILHVTKKKVFETLEARMTEACIRGYNPGLLVHSDLAYLQAEGGGDRQLTDREKEIIRQAAVQQTKEMDLSVVRLMFTAFLPDSTGSFTRRLEPVVSDAIYDSKAPNASNLKIVRMDRTAGCVTGGEEIYLLCDKVQKDDIQIRFYEEEENGGVWEGFGDFSPTDVHRQFAIVFKTPKYKDVNITKPASVFVQLRRKSDLETSEPKPFLYYPEIKDKEEVQRKRQKLMPNFSDSFGGGSGAGAGGGGMFGSGGGGGSTGSPGPGYGYSNYGFPPYGGITFHPGVTKSNAGVTHGTINTKFKNGPKDCAKSDDEESLTLPEKETEGEGPSLPMACTKTEPIALASTMEDKEQDMGFQDNLFLEKALQLARRHANALFDYAVTGDVKMLLAVQRHLTAVQDENGDSVLHLAIIHLHAQLVRDLLEVTSGLISDDIINMRNDLYQTPLHLAVITKQEDVVEDLLRVGADLSLLDRWGNSVLHLAAKEGHDRILSILLKSRKAAPLIDHPNGEGLNAIHIAVMSNSLPCLLLLVAAGAEVNAQEQKSGRTALHLAVEYDNISLAGCLLLEGDAHVDSTTYDGTTPLHIAAGRGSTRLAALLKAAGADPLVENFEPLYDLDDSWEKAGEDEGVVPGTTPLDMAANWQVFDILNGKPYEPVFTSDDILPQGDMKQLTEDTRLQLCKLLEIPDPDKNWATLAQKLGLGILNNAFRLSPAPSKTLMDNYEVSGGTIKELMEALQQMGYTEAIEVIQAAFRTPATTASSPVTTAQVHCLPLSSSSTRQHIDELRDSDSVCDSGVETSFRKLSFTESLTGDSPLLSLNKMPHGYGQEGPIEGKI
For the molecule B1, the “stoichiometry N” value in data set [2] amounted to 2.
